According to paper PMC3052529:
Several values for one entry are separate records, joined by “and”; a condition that tells them apart may be missing. Identical values can stand only once. Like-named read-outs stand apart in the source and are kept apart here.

How the values were obtained:
[1] = biological target: HCV core169 (first 169 residues of HCV core protein, domains D1+D2) (hepatitis C virus H77 genotype 1a); experiment: cross-linking
[2] = biological target: Flag-core106 (hepatitis C virus (strain not stated)); experiment: AlphaScreen or HTRF
[3] = biological target: Flag-core169 (hepatitis C virus H77 genotype 1a); experiment: AlphaScreen or HTRF
[4] = biological target: Flag-core106 (hepatitis C virus (strain not stated)); experiment: AlphaScreen or HTRF; remark: listed apart in the source
[5] = biological target: HCV core106 (first N-terminal 106 residues of HCV core protein) (hepatitis C virus (strain not stated)); experiment: cross-linking

Row | Substance | stoichiometry N [1] | IC50 [2] | IC50 [3] | IC50 [4] | stoichiometry N [5]
1 | HCV core169 (first 169 residues of HCV core protein, domains D1+D2) (domain or fragment) | 2 and 3 | – | – | – | –
2 | HCV core106 (first N-terminal 106 residues of HCV core protein) (domain or fragment) | – | 220 nM | 870 nM | 344 nM | 2
